Reference: patent publication US20180037631A1 (Bristol-Myers Squibb, published 2018)

Target: T1, EGFR on the surface of human tumour cells (A431, H292) (human, UniProt P00533 25-1210)
Assay: cell-based or functional assay

% inhibition of EGFR phosphorylation at 100 nM binder, cell-based assay [%]	Binder
78.2	E64 (designed binder) 10Fn3 domain: MGVSDVPRDLEVVAATPTSLLISWDSGNGTYQYYRITYGETGGNSPVQEFTVPYRVYTATISGLKPGVDYTITVYAVTDYYNPATHEYTYELRPISINYRTEIDKPSQ
76.2	E63 (designed binder) 10Fn3 domain: MGVSDVPRDLEVVAATPTSLLISWDTSGASYQYYRITYGETGGNSPVQEFTVPYSVYTATISGLKPGVDYTITVYAVTDYYDPDSHYYNYNMVPISINYRTEIDKPSQ
80.4	E71 (designed binder) 10Fn3 domain: MGVSDVPRDLEVVAATPTSLLISWWFGTSSYQYYRITYGETGGNSPVQEFTVPGDLKTATISGLKPGVDYTITVYAVTDYFNPVTHEYEYHTTPISINYRTEIDKPSQ
76.8	E70 (designed binder) 10Fn3 domain: MGVSDVPRDLEVVAATPTSLLISWVSARGRYQYYRITYGETGGNSPVQEFTVPGGVRTATISGLKPGVDYTITVYAVTDYYNLETYEYHYYRTPISINYRTEIDKPSQ
76.3	E59 (designed binder) 10Fn3 domain: MGVSDVPRDLEVVAATPTSLLISWRARRLQYQYYRITYGETGGNSPVQEFTVPGMVTTATISGLKPGVDYTITVYAVTDFYNPATMEYTYQRTPISINYRTEIDKPSQ
75.3	E67 (designed binder) 10Fn3 domain: MGVSDVPRDLEVVAATPTSLLISWSSVMGLYQYYRITYGETGGNSPVQEFTVPYDVYTATISGLKPGVDYTITVYAVTDYYNPSTYEYKYNTTPISINYRTEIDKPSQ
82.8	E72 (designed binder) 10Fn3 domain: MGVSDVPRDLEVVAATPTSLLISWSATRTLYQYYRITYGETGGNSPVQEFTVPYDVHTATISGLKPGVDYTITVYAVTDYYNMVTYEYNYHLTPISINYRTEIDKPSQ
100	E60 (designed binder) 10Fn3 domain: MGVSDVPRDLEVVAATPTSLLISWLQPLWRYQYYRITYGETGGNSPVQEFTVPGGLDTATISGLKPGVDYTITVYAVTDYKPHVDGPHAYHEYPISINYRTEIDKPSQ
78.9	E62 (designed binder) 10Fn3 domain: MGVSDVPRDLEVVAATPTSLLISWCLDGQLYQYYRITYGETGGNSPVQEFTVPGSIVTATISGLKPGVDYTITVYAVTDWYNLATHEYNYRVTPISINYRTEIDKPSQ
80.7	E65 (designed binder) 10Fn3 domain: MGVSDVPRDLEVVATTPTSLLISWRPTSQVYQYYRITYGETGGNSPVQEFTVPYNVYTATISGLKPGVDYTITVYAVTDFFNYATHEYIYHTIPISINYRTEIDKPSQ
78.5	E68 (designed binder) 10Fn3 domain: MGVSDVPRDLEVVAATPTSLLISWKTEPGRHQYYRITYGETGGNSPVQEFTVPGGVRTATISGLKPGVDYTITVYAVTDWYNLVSHEYVYHTTPISINYRTEIDKPSQ
75	E66 (designed binder) 10Fn3 domain: MGVSDVPRDLEVVAATPTSLLISWKSYGSAYQYYRITYGETGGNSPVQEFTVPGDLQTATISGLKPGVDYTITVYAITDYYNPDTHEYKYHVSPISINYRTEIDKPSQ
79.8	E61 (designed binder) 10Fn3 domain: MGVSDVPRDLEVVAATPTSLLISWDASQGNYQYYRITYGETGGNSPVQEFTVPGAVKTATISGLKPGVDYTITVYAVTDFFNPATHEYIYHTTPISINYRTEIDKPSQ
85.1	E69 (designed binder) 10Fn3 domain: MGVSDVPRDLEVVAATPTSLLISWHAGMAVYQYYRITYGETGGNSPVQEFTVPGDVLTATISGLKPGVDYTITVYAVTDFFNPVTHEYMYHTIPISINYRTEIDKPSQ

Target: T1, EGFR on the surface of human tumour …
Assay: cell-based or functional assay
Remark: another data set of the same source

% inhibition of EGFR phosphorylation at 100 nM binder, cell-based assay [%]	Binder
89.6	E40 (designed binder) 10Fn3 domain: MGVSDVPRDLEVVAATPTSLLISWVLGRRVYQYYRITYGETGGNSPVQEFTVPGAVYTATISGLKPGVDYTITVYAVTDYFNPATHEYQYELTPISINYRTEIDKPSQ
86	E32 (designed binder) 10Fn3 domain: MGVSDVPRDLEVVAATPTSLLISWVSLVGFYQYYRITYGETGGNSPVQEFTVPGGVHTATISGLKPGVDYTITVYAVTDYKPHADGPHTYHESPISINYRTEIDKPSQ
81.3	E36 (designed binder) 10Fn3 domain: MGVSDVPRDLEVVAATPTSLLISWESGSRTYQYYRITYGETGGNSPVQEFTVPGGVHTATISGLKTGVDYTITVYAVTDYKPHADGPHTYHEYPISINYRTEIDKPSQ
75	E43 (designed binder) 10Fn3 domain: MGVSDVPRDLEVVAATPTSLLISWSGGFMRYQYYRITYGETGGNSPVQEFTVPGQVYTATISGLKPGVDYTITVYAVTDYKPHADGPHTYHESPISINYRTEIDKPSQ
80.4	E34 (designed binder) 10Fn3 domain: MGVSDVPRDLEVVAATPTSLLISWLAPFWRYQYYRITYGETGGNSPVQEFTVPGGVRTATISGLKPGVDYTITVYAVTDYKPHADGPHTYHESPISINYRTEIDKPSQ
76.7	E39 (designed binder) 10Fn3 domain: MGVSDVPRDLEVVAATPTSLLISWQVSAFRYQYYRITYGETGGNSPVQEFTVPGMVSTATISGLKPGVDYTITVYAVTDYKPHADGPHTYSEYPISINYRTEIDKPSQ
80.4	E45 (designed binder) 10Fn3 domain: MGVSDVPRDLEVVAATPTSLLISWQVPRPMYQYYRITYGEKGGNSPVQEFTVPHDLRTATISGLKPGVDYTITVYAVTDYYDPTSNLYNYNQTPISINYRTEIDKPSQ
80.8	E37 (designed binder) 10Fn3 domain: MGVSDVPRDLEVVAATPTSLLISWERTSTHYQYYRITYGETGGNSPVQEFTVPGRVYTATISGLKPGVDYTITVYAVTDYYNPATHEYKYHQTPISINYRTEIDKPSQ
89.8	E38 (designed binder) 10Fn3 domain: MGVSDVPRDLEVVAATPTSLLISWNARTDAYQYYRITYGETGGNSPVQEFTVPRDLETATISGLKPGVDYTITVYAVTDYKPHADGPHTYQESPISINYRTEIDKPSQ
77.3	E42 (designed binder) 10Fn3 domain: MGVSDVPRDLEVVAATPTSLLISWVVPNWMYQYYRITYGETGGNSPVQEFTVPGMLETATISGLKPGVDYTITVYAVTDYYNPTTYEYTYFTYPISINYRTEIDKPSQ
75.2	E41 (designed binder) 10Fn3 domain: MGVSDVPRDLEVVAATPTSLLISWTPPNSGHNYYRITYGETGGNSPVQEFTVPHDLTTATISGLKPGVDYTITVYAVTDYYNPNTYEYTYQFTPISINYRTEIDKPSQ
90.2	E35 (designed binder) 10Fn3 domain: MGVSDVPRDLEVVAATPTSLLISWTPPGHQHQYYRITYGETGGNSPVQEFTVPGQVTTATISGLKPGVDYTITVYAVTDYYNPATHYYTYYTTPISINYRTEIDKPSQ
83.3	E44 (designed binder) 10Fn3 domain: MGVSDVPRDLEVVAATPTSLLISWDSEGPSYQYYRITYGETGGNSPVQEFTVPYAVYTATISGLKPGVDYTITVYAVTDYYNPRTHELFFQQYPISINYRTEIDKPSQ
75.8	E33 (designed binder) 10Fn3 domain: MGVSDVPRDLEVVAATPTSLLISWASRKEVYQYYRITYGETGGNSPVQEFTVPGWLNTATISGLKPGVDYTITVYAVTDYMHVEYAEYPISINYRTEIDKPSQ

Target: T1, EGFR on the surface of human tumour …
Assay: cell-based or functional assay
Remark: another data set of the same source

% inhibition of EGFR phosphorylation at 100 nM binder, cell-based assay [%]	Binder
80.9	E74 (designed binder) 10Fn3 domain: MGVSDVPRDLEVVAATPTSLLISWRASGGLYQYYRITYGETGGNSPVQEFTVPGSVNTATISGLKPGVDYTITVYAVTDFYNPATYEYIYHTTPISINYRTEIDKPSQ
76.5	E75 (designed binder) 10Fn3 domain: MGVSDVPRDLEVVAATPTSLLISWAAGRATYQYYRITYGETGGNSPVQEFTVPYDVTTATISGLKPGVDYTITVYAVTDFYNPATHEYYYETTPISINYRTEIDKPSQ
78.8	E73 (designed binder) 10Fn3 domain: MGVSDVPRDLEVVVATPTSLLISWTKLLGGYQYYRITYGETGGNSPVQEFTVPGPVYTATISGLKPGVDYTITVYAVTDFFNPRTHEYQYHTTPISINYRTEIDKPSQ
